The record followed here is US20240327530A1 (ICHNOS SCIENCES, published 2024).

Experiment [1] deals with T1, Recombinant mouse IL-1RAP Fc fusion protein (Sino Biologicals, catalog no. 52657-M02H) (mouse, UniProt Q61730 21-350).
T1 construct: Bought; not shown: Fc part of the bought fusion protein
T1 sequence: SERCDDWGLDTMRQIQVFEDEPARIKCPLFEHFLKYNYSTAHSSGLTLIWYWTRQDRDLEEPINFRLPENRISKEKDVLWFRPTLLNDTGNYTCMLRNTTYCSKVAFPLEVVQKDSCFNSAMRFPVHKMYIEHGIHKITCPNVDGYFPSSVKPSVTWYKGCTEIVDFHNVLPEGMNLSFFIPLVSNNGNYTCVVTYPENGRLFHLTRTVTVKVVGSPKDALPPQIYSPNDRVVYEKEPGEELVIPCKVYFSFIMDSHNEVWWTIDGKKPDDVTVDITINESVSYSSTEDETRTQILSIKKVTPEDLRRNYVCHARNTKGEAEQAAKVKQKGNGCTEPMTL
Description: SPR, mouse IL-1RAP-Fc captured, Fab as analyte. As to the method:
(§1) Surface plasmon resonance (SPR) was used to measure the binding affinities of the Fab fragments for human, cynomolgus monkey and/or mouse IL-1RAP. Affinities were measured on a BIACORE™ T200 instrument (BIACORE™, GE […]®) at 25° C. and analyzed with the BIACORE™ T200 Evaluation Software (v3.1). Measurements were performed on Series S CM5 sensor chips (BIACORE™ T200, BIACORE™, GE […]®, catalog no. BR100530) coupled with anti-human IgG Fc (BIACORE™, GE […]®, catalog no. BR100839) using a commercial amine coupling kit (BIACORE™, GE […]®, catalog no. BR100050) or on Series S BiotinCAPture chips (BIACORE™, GE […]®, catalog no. 28920234). SPR measurements were performed with commercially available recombinant human IL-1RAP Fc fusion protein (Acrobiosystems, catalog no. ILP-H5256) and recombinant mouse IL-1RAP Fc fusion protein (Sino Biologicals, catalog no. 52657-M02H) or with biotinylated recombinant cynomolgus monkey IL-1RAP-avi-his protein produced in-house (SEQ ID NO. 2).
(§2) The affinities to human, cynomolgus monkey and mouse IL-1RAP were assessed by immobilizing IL-1RAP and using Fab fragments as analyte. Around 100 RU of human or mouse IL-1RAP Fc fusion protein were captured on fc2 of a Series S CM5 sensor chip coupled with anti-human IgG Fc and around 150 RU of biotinylated cynomolgus monkey IL-1RAP protein were captured on fc2 of a Series S BiotinCAPture chip. Fab fragments were injected in single cycle kinetic at different concentrations ranging from 7.8 to 500 nM, in HBS-EP+ buffer (BIACORE™, GE […]®, catalog no. BR100669) at a flow rate of 30 μl/min for 3 min on fc1 and fc2 (fc1 being used as reference). Dissociation was monitored for 5 min. After each cycle, the surface was regenerated with 60 μl of regeneration solution provided with anti-human IgG Fc capture kit (BIACORE™, GE […]®, catalog no. BR100839) or BiotinCAPture kit (BIACORE™, GE […]®, catalog no. 28920234) respectively. Experimental data were processed using the 1:1 Langmuir kinetic fitting model. Measurements included zero-concentration samples for referencing. Chi², U- and residual values were used to evaluate the quality of a fit between the experimental data and individual binding models.

The target in experiment [2] is T2, Recombinant human IL-1RAP Fc fusion protein (Acrobiosystems, catalog no. ILP-H5256) (human, UniProt Q9NPH3 21-359, limits assumed).
T2 construct: Bought; not shown: Fc part of the bought fusion protein
T2 sequence: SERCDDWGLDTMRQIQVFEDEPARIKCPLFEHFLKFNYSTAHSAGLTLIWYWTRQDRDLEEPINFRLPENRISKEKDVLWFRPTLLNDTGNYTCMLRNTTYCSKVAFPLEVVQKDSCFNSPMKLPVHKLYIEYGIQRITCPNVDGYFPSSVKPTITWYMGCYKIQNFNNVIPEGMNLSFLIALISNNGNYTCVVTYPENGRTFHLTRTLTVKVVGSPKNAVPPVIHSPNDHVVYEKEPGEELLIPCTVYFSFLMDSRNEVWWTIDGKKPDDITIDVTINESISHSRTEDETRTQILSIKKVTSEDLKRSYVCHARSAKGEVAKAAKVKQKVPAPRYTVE
Put plainly: SPR, human IL-1RAP-Fc captured, Fab as analyte, 1:1 fit. As to the method: as §1, §2

Experiment [3] deals with T3, Recombinant cynomolgus monkey IL-1RAP-ECD(S21-E359)-avi-his protein (cynomolgus monkey, UniProt P59822 21-359 (rhesus entry)).
T3 construct: also called cyno IL-1RAP-ECD-Avi-His; recombinant cynomolgus monkey IL-1RAP-avi-his protein
T3 sequence: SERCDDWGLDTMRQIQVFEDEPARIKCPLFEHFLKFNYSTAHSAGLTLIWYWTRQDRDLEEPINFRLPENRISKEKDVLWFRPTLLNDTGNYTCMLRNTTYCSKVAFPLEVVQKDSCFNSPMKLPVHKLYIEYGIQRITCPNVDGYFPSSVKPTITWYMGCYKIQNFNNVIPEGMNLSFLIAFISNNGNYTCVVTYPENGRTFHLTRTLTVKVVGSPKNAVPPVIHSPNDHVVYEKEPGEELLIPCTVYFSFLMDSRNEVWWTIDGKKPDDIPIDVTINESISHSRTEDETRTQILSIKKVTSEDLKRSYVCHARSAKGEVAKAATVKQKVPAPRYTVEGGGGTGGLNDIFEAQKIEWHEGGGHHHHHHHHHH
Put plainly: SPR, biotinylated cyno IL-1RAP-avi-his captured, Fab as analyte, 1:1 fit. As to the method: as §1, §2

Experiment [4] concerns the target T2, Recombinant human IL-1RAP Fc fusion …. Description: SPR, human IL-1RAP-Fc captured, Fab as analyte (0.08 to 50 nM). As to the method: BR100669) at a flow rate of 30 μl/min for 3 min on fc1 and fc2 (fc1 being used as reference). Dissociation was monitored for 5 min. After each cycle, the surface was regenerated with 60 μl of regeneration solution provided with anti-human IgG Fc capture kit (BIACORE™, GE […]®, catalog no. BR100839) or BiotinCAPture kit (BIACORE™, GE […]®, catalog no. 28920234) respectively. Experimental data were processed using the 1:1 Langmuir kinetic fitting model. Measurements included zero-concentration samples for referencing. Chi², U- and residual values were used to evaluate the quality of a fit between the experimental data and individual binding models. […]

Substitutions are numbered along the chain they refer to. Numbers in names are those of the source.

B1: Anti-IL-1RAP-UCP03-C2-Fab (Fab, V domains shown)
VH: QVQLVQSGAEVKKPGSSVKVSCKASGDPFKRYAIGWVRQAPGQGLEWMGGIIPTTGEAIYAQKFQGRVTITADESTSTAYMELSSLRSEDTAVYYCARHGTTYAAFDHWGQGTLVTVSS
VL: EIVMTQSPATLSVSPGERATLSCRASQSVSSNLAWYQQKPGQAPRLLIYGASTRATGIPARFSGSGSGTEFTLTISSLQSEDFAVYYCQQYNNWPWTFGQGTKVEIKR
The Kd is the equilibrium constant for the complex coming apart. As for B1, the binding result in experiment [1] is “no binding (tested: 7.8 to 500 nM Fab)”. Moreover, the Kd in experiment [2] was 700 nM; in experiment [3], 486 nM.

B2: Anti-IL-1RAP-UCP03-B4-Fab (Fab, V domains shown)
VH: QVQLVQSGAEVKKPGSSVKVSCKASGGPFSQHAISWVRQAPGQGLEWMGGIIPFEGVAFYAQKFQGRVTITADESTSTAYMELSSLRSEDTAVYYCARSSSYYSWLDYWGQGTLVTVSS
VL: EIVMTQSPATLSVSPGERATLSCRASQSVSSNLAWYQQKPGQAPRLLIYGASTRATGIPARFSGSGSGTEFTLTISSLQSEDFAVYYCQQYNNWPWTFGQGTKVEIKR
In the case of B2, the binding result in experiment [1] was “no binding (tested: 7.8 to 500 nM Fab)”. Further, the Kd in experiment [2] was determined as 221 nM; in experiment [3] it was 220 nM.

B3: Anti-IL-1RAP-UCP03-G3-Fab (Fab, V domains shown)
VH: QVQLVQSGAEVKKPGSSVKVSCKASGGPLSGYAFHWVRQAPGQGLEWMGGIIPNFAQTDYAQKFQGRVTITADESTSTAYMELSSLRSEDTAVYYCARFSIYSGWSDVWGQGTLVTVSS
VL: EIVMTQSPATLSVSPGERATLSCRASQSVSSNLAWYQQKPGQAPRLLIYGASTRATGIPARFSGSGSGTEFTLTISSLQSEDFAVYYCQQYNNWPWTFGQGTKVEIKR
Regarding B3, in experiment [1], the binding result was “no binding (tested: 7.8 to 500 nM Fab)”. Besides, the Kd in experiment [2] came to 279 nM; in experiment [3] it was 464 nM.

B4: Anti-IL-1RAP-C8-H1A-C4-Fab (Fab, V domains shown)
VH: QVQLVQSGAEVKKPGSSVKVSCKASGGKLNAYAIQWVRQAPGQGLEWMGYIIPLHGQVDYAQKFQGRVTITADESTSTAYMELSSLRSEDTAVYYCARGQTLYDSGRQFDIWGQGTLVTVSS
VL: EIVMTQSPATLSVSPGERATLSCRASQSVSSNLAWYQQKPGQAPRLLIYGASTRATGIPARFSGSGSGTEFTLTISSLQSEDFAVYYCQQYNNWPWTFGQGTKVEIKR
B4: the Kd in experiment [4] worked out at 0.995 nM.

B5: Anti-IL-1RAP-C8-H1B-F3-Fab (Fab, V domains shown)
VH: B4 VH with K28P, L29H, N30T, Y32H
VL: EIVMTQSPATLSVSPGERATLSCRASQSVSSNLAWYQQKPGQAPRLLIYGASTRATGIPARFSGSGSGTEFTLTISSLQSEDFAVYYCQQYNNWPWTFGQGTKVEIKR
As for B5, the Kd in experiment [4] worked out at 0.427 nM.

B6: Anti-IL-1RAP-C8-H1B-A8-Fab (Fab, V domains shown)
VH: B4 VH with G27E, K28G, L29S, N30Y, A31P
VL: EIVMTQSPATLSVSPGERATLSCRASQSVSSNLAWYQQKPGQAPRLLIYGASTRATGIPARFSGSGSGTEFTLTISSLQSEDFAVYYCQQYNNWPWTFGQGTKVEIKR
Regarding B6, in experiment [4], the Kd was 0.522 nM.

B7: Anti-IL-1RAP-C8-H1B-E7-Fab (Fab, V domains shown)
VH: B4 VH with G27S, L29H, N30G, A31N
VL: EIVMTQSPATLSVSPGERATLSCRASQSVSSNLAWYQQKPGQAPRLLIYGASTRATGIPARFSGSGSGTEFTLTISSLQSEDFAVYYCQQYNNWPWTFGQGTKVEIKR
On to B7, for which the Kd in experiment [4] worked out at 0.831 nM.

B8: Anti-IL-1RAP-C8-H2B-C10-Fab (Fab, V domains shown)
VH: B4 VH with K28Q, L29F, N30S, A31E, L54S, H55L, Q57G, V58Y
VL: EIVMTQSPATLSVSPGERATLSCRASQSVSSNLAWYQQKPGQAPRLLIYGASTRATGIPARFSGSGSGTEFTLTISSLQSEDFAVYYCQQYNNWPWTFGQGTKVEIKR
notes: also called ISB 880-C8-H2B-C10
For the molecule B8, the Kd in experiment [4] came out at 0.589 nM.

B9: Anti-IL-1RAP-C8-H1A-G3-Fab (Fab, V domains shown)
VH: B4 VH with K28P, L29F, N30S, A31D
VL: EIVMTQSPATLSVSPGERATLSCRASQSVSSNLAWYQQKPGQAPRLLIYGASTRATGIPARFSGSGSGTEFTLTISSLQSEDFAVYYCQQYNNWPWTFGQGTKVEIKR
For B9, the equilibrium dissociation constant (Kd) in experiment [4] came to 0.623 nM.

B10: Anti-IL-1RAP-C8-H1B-G10-Fab (Fab, V domains shown)
VH: B4 VH with K28P, L29R, N30R
VL: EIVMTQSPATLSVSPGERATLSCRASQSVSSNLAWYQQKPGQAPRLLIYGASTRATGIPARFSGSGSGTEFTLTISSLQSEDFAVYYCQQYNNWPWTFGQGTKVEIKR
Consider B10, for which the Kd in experiment [4] is 0.313 nM.

B11: Anti-IL-1RAP-C8-H1A-G11-Fab (Fab, V domains shown)
VH: B4 VH with K28R, L29F, N30H, A31Q
VL: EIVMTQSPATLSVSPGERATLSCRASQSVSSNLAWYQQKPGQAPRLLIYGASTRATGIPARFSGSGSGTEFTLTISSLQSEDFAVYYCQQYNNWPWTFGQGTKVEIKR
On to B11, for which, in experiment [4], the Kd turned out to be 0.742 nM.

B12: Anti-IL-1RAP-C8-H1A-D8-Fab (Fab, V domains shown)
VH: B4 VH with K28H, L29F, A31N
VL: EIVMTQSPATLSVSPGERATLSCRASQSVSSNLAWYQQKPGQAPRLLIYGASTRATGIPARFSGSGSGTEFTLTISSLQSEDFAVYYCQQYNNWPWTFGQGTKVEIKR
As to B12, in experiment [4], the equilibrium dissociation constant (Kd) is 1.51 nM.

B13: Anti-IL-1RAP-C8-H1B-B8-Fab (Fab, V domains shown)
VH: B4 VH with G27S, K28P, L29A, N30E, A31P
VL: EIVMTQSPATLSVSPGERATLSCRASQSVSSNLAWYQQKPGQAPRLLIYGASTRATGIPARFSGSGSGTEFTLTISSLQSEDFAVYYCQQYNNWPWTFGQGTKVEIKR
notes: also called ISB 880-C8-H1B-B8
In the case of B13, in experiment [4], the Kd is 0.373 nM.

B14: Anti-IL-1RAP-C8-H1B-H10-Fab (Fab, V domains shown)
VH: B4 VH with G27S, K28T, L29W, N30E, A31P
VL: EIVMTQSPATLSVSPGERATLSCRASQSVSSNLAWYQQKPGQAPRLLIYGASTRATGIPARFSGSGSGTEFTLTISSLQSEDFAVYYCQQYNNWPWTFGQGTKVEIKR
With B14, the Kd in experiment [4] is 0.209 nM.

B15: Anti-IL-1RAP-C8-recA-Fab (Fab, V domains shown)
VH: B4 VH with G27S, K28T, L29W, N30E, A31P, L54S, H55L, Q57G, V58Y
VL: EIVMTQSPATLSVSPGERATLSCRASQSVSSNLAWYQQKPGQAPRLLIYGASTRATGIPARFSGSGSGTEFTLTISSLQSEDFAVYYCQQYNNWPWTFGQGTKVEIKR
With B15, the Kd in experiment [4] was determined as 0.051 nM.

B16: Anti-IL-1RAP-C8-H1B-B10-Fab (Fab, V domains shown)
VH: B4 VH with G27V, K28T, L29H, N30T, A31S
VL: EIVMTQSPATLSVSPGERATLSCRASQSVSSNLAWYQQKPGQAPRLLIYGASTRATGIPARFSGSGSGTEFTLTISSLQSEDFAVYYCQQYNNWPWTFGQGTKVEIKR
Consider B16, for which the Kd in experiment [4] was 0.553 nM.

B17: Anti-IL-1RAP-C8-H1B-D8-Fab (Fab, V domains shown)
VH: B4 VH with G27P, K28S, L29N, N30P, A31V
VL: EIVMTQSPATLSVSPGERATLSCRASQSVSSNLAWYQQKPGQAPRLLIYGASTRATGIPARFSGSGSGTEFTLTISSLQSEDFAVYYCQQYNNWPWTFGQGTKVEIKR
As for B17, the Kd in experiment [4] was found to be 0.476 nM.

B18: Anti-IL-1RAP-C8-H1A-F1-Fab (Fab, V domains shown)
VH: B4 VH with K28I, L29F, N30S, A31N
VL: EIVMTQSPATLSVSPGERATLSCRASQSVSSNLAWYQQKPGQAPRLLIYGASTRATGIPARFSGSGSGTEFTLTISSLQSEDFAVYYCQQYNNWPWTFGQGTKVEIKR
Turning to B18, in experiment [4], the Kd is 0.832 nM.

B19: Anti-IL-1RAP-C8-H2B-B5-Fab (Fab, V domains shown)
VH: B4 VH with K28Q, L29F, N30S, A31E, L54T, H55V, Q57G, V58F
VL: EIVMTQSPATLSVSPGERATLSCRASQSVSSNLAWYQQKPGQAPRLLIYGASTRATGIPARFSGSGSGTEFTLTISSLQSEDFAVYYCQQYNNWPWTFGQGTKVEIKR
For the molecule B19, the Kd in experiment [4] came out at 1.37 nM.

B20: Anti-IL-1RAP-C8-H1A-G1-Fab (Fab, V domains shown)
VH: B4 VH with K28A, L29S, N30R, Q35H
VL: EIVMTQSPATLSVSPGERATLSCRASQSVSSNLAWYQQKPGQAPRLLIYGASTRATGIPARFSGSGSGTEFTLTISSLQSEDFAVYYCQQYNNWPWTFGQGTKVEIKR
For the molecule B20, in experiment [4], the Kd was 0.424 nM.

B21: Anti-IL-1RAP-C8-H1A-C8-Fab (Fab, V domains shown)
VH: B4 VH with K28L, L29F, N30S, A31D
VL: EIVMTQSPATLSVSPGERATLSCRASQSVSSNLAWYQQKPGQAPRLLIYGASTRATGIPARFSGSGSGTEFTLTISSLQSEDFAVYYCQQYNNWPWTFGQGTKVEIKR
Take B21: the Kd in experiment [4] came out at 1.24 nM.

B22: Anti-IL-1RAP-UCP03-B6-Fab (Fab, V domains shown)
VH: QVQLVQSGAEVKKPGSSVKVSCKASGDPFSVYIIHWVRQAPGQGLEWMGYIIAQQGSASYAQKFQGRVTITADESTSTAYMELSSLRSEDTAVYYCARVPDPYSGHFDYWGQGTLVTVSS
VL: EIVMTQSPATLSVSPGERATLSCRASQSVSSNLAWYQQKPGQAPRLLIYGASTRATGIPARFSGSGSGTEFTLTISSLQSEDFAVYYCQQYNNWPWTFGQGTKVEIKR
Turning to B22, the binding result in experiment [1] is “no binding (tested: 7.8 to 500 nM Fab)”. For the same molecule, the Kd in experiment [2] was determined as 545 nM; in experiment [3], 756 nM.

B23: Anti-IL-1RAP-UCP03-G4-Fab (Fab, V domains shown)
VH: QVQLVQSGAEVKKPGSSVKVSCKASGGRFSHYVFSWVRQAPGQGLEWMGGIIPYEGKPFYAQKFQGRVTITADESTSTAYMELSSLRSEDTAVYYCARSDYFYYYFDPWGQGTLVTVSS
VL: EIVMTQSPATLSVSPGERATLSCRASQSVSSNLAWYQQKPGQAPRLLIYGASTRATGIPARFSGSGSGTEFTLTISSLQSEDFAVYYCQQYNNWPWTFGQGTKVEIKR
As for B23, in experiment [1], the binding result was “no binding (tested: 7.8 to 500 nM Fab)”. Further, the Kd in experiment [2] came to 420 nM; in experiment [3], 378 nM.

B24: Anti-IL-1RAP-UCP02-B11-Fab (Fab, V domains shown)
VH: QVQLVQSGAEVKKPGSSVKVSCKASGGHFSQFAISWVRQAPGQGLEWMGGIAPGLGSTRYAQKFQGRVTITADESTSTAYMELSSLRSEDTAVYYCARDSIYSAWLAYWGQGTLVTVSS
VL: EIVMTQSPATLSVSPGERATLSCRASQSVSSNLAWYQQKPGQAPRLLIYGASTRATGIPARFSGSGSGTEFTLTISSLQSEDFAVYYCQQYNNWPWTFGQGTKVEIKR
On to B24, for which the binding result in experiment [1] is recorded as “no binding (tested: 7.8 to 500 nM Fab)”. Besides, the Kd in experiment [2] is 98.1 nM; in experiment [3], 78.7 nM.
